We go through three molecules from US6294333, “Fluorescent intensity assay for protein or peptide binding to nucleic acids” (Ingeneus Corp.).

In one data set the target is c-JUN full length (Homo sapiens, UniProt P05412 P05412:1-331). Kind of data set: fluorescence quenching; no decrease in NaCl or KCl, 21 C. Particulars: tags: Promega; 340 aa; chain copies: 2 (stated homodimer); label: 5'-fluorescein both strands. On the procedure:
(§1) The c-JUN :DNA binding reaction mixture (30 μl) contained the following: 9.25 mM HEPES, pH 7.9, 2.23 mM MgCl_2, 0.03 mM EDTA, 50 mM NaCl, 5.0 mM DTT, 3.75% (v/v) glycerol, 0.15 μg/μl bovine serum albumin (BSA), 0–2.0 μg pure c-JUN protein (Promega, Madison, Wis.) or 0–400 ng pure c-JUN peptide, and 0.075 pmole 5'-fluorescein labeled dsDNA oligonucleotide. When full-length c-JUN was used, 3 ng/μl poly(dI)-poly(dC) was included in the reaction mix, and added before the addition of protein and fluorescein-labeled DNA. The examples in FIGS. 1B and 1D contained 50 mM KCl in lieu of 50 mM NaCl. Wild-type and mutant c-JUN DNA-binding domain peptides were generously supplied by Dr. Dirk Bohmann (European Molecular Biology Laboratory, Heidelberg, Germany). The reaction mixtures were incubated at 21° C. for 30 minutes, placed into a quartz cuvette, irradiated with an argon ion laser beam having a wavelength of 488 nm and monitored for fluorescent emission.
These mutant DNA binding studies confirm the specificity of both the c-JUN:wild-type DNA binding conditions and the laser detection method.

In data set [1] the target is T1, c-JUN mutant 14 DNA-binding domain peptide (K277I, C278D) (Homo sapiens, UniProt P05412 SEQ:1-132).
T1 chain: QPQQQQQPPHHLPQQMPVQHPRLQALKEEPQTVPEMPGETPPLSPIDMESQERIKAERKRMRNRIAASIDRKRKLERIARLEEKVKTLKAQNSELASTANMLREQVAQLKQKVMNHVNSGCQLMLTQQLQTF
Put plainly: fluorescence quenching; no decrease at 200-400 ng. The note with it: chain copies: 2 (inferred); label: 5'-fluorescein both strands. The method, then:
as §1
The specificity of the laser binding assay was further tested by reacting a mutant c-JUN DNA-binding domain peptide with wild-type or mutant DNA. Specific mutations in the basic domain of c-JUN abolish DNA binding without affecting dimerization, whereas specific mutations in the leucine zipper prevent both dimerization and DNA binding.

Data set [2] addresses c-JUN DNA-binding domain peptide (wild-type) (Homo sapiens, UniProt P05412 SEQ:1-132). Kind of data set: fluorescence quenching; minor increase in intensity at 20-200 ng. The note with it: chain copies: 2 (inferred); label: 5'-fluorescein both strands. The method, then: as §1
The target of a further data set is Sp1 full length (UniProt P08047 P08047:2-785). Put plainly: fluorescence quenching; 200 ng Sp1, no decrease. The note with it: tags: Promega; label: 5'-fluorescein both strands. The method, then:
The Sp1:DNA binding reaction mixture (30 µl) contained the following: 25 mM HEPES, pH 7.8, 100mM KCl, 100 µM ZnSO_4, 1 mM DTT, 20% (v/v) glycerol, 0.05 µg/µl BSA, 0–200 ng pure Sp1 protein (Promega) and 0.1 pmole 5'-fluorescein labeled dsDNA oligonucleotide. The reaction mixes were incubated at 0° C. for […], placed into a quartz cuvette, irradiated with an argon ion laser beam having a wavelength of 488 nm and monitored for fluorescent emission.
When 200 ng Sp1 was reacted with 0.1 pmole mutant JD13F/14F, no decrease in fluorescent intensity was observed (FIG. 4B), indicating non-binding of protein to the mutated DNA sequence. These studies confirmed the specificity of the laser detection assay for a completely different class of DNA-binding proteins.

Sp1 full length, sequence (P08047 2-785, one chain of several): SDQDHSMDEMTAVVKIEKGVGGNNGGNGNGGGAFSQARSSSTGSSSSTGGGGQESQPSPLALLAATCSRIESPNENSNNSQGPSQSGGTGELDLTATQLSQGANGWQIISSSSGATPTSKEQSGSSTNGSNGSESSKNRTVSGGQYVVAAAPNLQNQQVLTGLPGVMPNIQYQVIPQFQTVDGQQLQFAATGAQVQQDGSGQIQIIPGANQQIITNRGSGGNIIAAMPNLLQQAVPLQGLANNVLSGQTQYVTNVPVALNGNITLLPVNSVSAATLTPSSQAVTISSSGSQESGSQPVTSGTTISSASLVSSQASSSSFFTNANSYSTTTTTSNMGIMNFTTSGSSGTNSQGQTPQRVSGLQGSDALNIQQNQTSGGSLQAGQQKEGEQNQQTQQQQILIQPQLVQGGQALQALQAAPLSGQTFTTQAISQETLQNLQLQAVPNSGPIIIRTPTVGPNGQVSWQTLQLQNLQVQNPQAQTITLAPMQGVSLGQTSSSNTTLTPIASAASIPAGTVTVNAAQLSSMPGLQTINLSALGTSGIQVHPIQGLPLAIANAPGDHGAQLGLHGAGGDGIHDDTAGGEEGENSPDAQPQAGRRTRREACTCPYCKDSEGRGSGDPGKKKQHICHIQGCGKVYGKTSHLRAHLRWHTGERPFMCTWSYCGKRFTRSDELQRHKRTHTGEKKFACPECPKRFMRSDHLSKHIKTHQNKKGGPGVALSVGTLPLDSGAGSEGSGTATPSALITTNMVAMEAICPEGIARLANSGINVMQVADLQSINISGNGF

B1: JD3F/4F (dsDNA)
DNA 1: GTGTCTTACTCATGCTT
DNA 2: AAGCATGAGTAAGACAC
For the molecule B1, the binding result (with c-JUN full length; in data set [1]; in data set [2]) was “no binding” each time.

B2: JD1F/2F (dsDNA)
DNA 1: GTGTCTGACTCATGCTT
DNA 2: AAGCATGAGTCAGACAC
As for B2, the binding result in data set [1] is given as “no binding”.

B3: JD13F/14F (dsDNA)
DNA 1: CCGGCCTAAATAGGGCTTTT
DNA 2: AAAAGCCCTATTTAGGCCGG
Regarding B3, the binding result with Sp1 full length is “no binding”.
